In paper doi:10.1101/2025.11.17.688653:

Target: mouse PIEZO1-R2482H (mouse) (UniProt E2JF22)
Assay: cryo-EM structure

stoichiometry N: 3
Substance: mouse PIEZO1-R2482H, E2JF22 1-2547
